Measurements as given in patent publication US20190022211A1 (CELLTRION, published 2019).
“And” between values parts separate entries of the source, which are not always exact repeats. Equal values may be shown once.

T1: G protein of rabies virus CVS-11 strain (on virus) (rabies virus CVS-11 strain, UniProt O92284 20-524)
T1 sequence: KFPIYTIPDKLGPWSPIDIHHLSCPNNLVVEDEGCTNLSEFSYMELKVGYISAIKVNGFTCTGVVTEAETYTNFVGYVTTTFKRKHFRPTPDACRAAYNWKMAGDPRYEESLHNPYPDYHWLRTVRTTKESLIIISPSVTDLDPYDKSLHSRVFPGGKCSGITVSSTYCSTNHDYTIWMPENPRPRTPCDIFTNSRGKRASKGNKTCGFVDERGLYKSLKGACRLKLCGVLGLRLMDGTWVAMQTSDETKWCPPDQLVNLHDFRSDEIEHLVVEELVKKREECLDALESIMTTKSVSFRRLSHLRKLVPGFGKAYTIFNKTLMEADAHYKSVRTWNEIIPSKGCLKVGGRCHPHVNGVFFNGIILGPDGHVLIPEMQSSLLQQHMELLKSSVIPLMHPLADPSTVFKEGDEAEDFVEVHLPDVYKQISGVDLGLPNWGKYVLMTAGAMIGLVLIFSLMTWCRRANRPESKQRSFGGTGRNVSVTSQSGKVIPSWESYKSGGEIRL

B1: antibody 1 (antibody, V domains shown)
VH: VQLLQESGPGLAKPSETLSLICTVSGGSISRRRDYWGWIRQPPGRGLEWIGSFFHRGSTYYNPSLESRVSISVDPSKNQFSLHLSSVTVADTAVYYCARHPSTPFAEYLLLPDAFDSWGQGTLVTVSS
VL: DIVMTQSPATLSVSPGERATLSCRASQSVRSSLAWYQQRPGQAPRLLISGASTRATDIPARLSGSGSGTEFTLTVSSLQSEDFAVYYCQQYSDWPLTFGGGTKVEIKR
B2: antibody 2 (antibody, V domains shown)
VH: EVQLVESGAEVKKPGASVKVSCKASGYTFTSYDISWVRQAPGQGLEWMGWISTYKGNTNFAQKFQDRVTLTTDTSTTTAYMELRSLTSDDTAVYYCARAKSHPFYDFWSAYYVPGAFDIWGQGTVVTVSS
VL: not shown

Assays:
Assay in all cases: cell-based or functional assay
[1] = target: T1, G protein of rabies virus CVS-11 strain …
[2] = target: G protein of rabies virus AZ Bat (Bat, Arizona), on virus (rabies virus)
[3] = target: G protein of rabies virus Rv342 China (Cow/dog, China), on virus (rabies virus)
[4] = target: G protein of rabies virus Gray FX-AZ (AZ fox) (Gray Fox, Arizona, USA), on virus (rabies virus)
[5] = target: G protein of rabies virus RVHN (Human (ex, wolf), Russia, Arctic), on virus (rabies virus)
[6] = target: G protein of rabies virus Dog Tun (Dog, Tunisia), on virus (rabies virus)
[7] = target: G protein of rabies virus TX Coyote (Coyote, Texas, USA), on virus (rabies virus)
[8] = target: G protein of ABV (SM 4476) (Australian bat lyssa, Genotype 7), on virus (Australian bat lyssa, Genotype 7)
[9] = target: G protein of EBLV 1 A09-3484 (Genotype 5), on virus (EBLV 1, Genotype 5)
[10] = target: G protein of EBLV 2 A03-4659 (Genotype 6), on virus (EBLV 2, Genotype 6)
[11] = target: G protein of Duvenhage (Genotype 4), on virus (Duvenhage, Genotype 4)
[12] = target: G protein of EBLV 1 A09-3485 (Genotype 5), on virus (EBLV 1, Genotype 5)
[13] = target: G protein of EBLV 2 A09-3483 (Genotype 6), on virus (EBLV 2, Genotype 6)
[14] = target: G protein of rabies virus Bat Ef (Bat, Pennsylvania, USA), on virus (rabies virus)
[15] = target: G protein of rabies virus VA 399 (Bat, Virginia, USA), on virus (rabies virus)
[16] = target: G protein of rabies virus NC SK (Skunk, Wisconsin, USA), on virus (rabies virus)
[17] = target: G protein of rabies virus MI1625 (Bat, Tennessee, USA), on virus (rabies virus)
[18] = target: G protein of rabies virus Phi 002 (231) (Human/dog, Philippines), on virus (rabies virus)
[19] = target: G protein of rabies virus WA Bat (Bat, Washington, USA), on virus (rabies virus)

Binder | neutralizing activity (RFFIT) [1] | neutralizing activity (RFFIT), Titer [1] | neutralizing activity (RFFIT) [2] | neutralizing activity (RFFIT), Titer [2] | neutralizing activity (RFFIT) [3] | neutralizing activity (RFFIT), Titer [3] | neutralizing activity (RFFIT) [4] | neutralizing activity (RFFIT), Titer [4] | neutralizing activity (RFFIT) [5] | neutralizing activity (RFFIT), Titer [5] | neutralizing activity (RFFIT) [6] | neutralizing activity (RFFIT), Titer [6] | neutralizing activity (RFFIT) [7] | neutralizing activity (RFFIT), Titer [7] | neutralizing activity (RFFIT) [8] | neutralizing activity (RFFIT), Titer [8] | neutralizing activity (RFFIT) [9] | neutralizing activity (RFFIT), Titer [9] | neutralizing activity (RFFIT) [10] | neutralizing activity (RFFIT), Titer [10] | also measured
B1 | 0.41 IU/mL and 2060 IU/mg | 70 | 1.1 IU/mL and 1090 IU/mg | 125 | 0.5 IU/mL and 2540 IU/mg | 280 | 0.53 IU/mL and 2670 IU/mg | 16 | 0.4 IU/mL and 2000 IU/mg | 54 | 2.3 IU/mL and 2300 IU/mg | 230 | 0.33 IU/mL and 1650 IU/mg | 56 | 0.4 IU/mL and 2000 IU/mg | 54 | 0.56 IU/mL and 2800 IU/mg | 56 | 0.6 IU/mL and 3000 IU/mg | 54 | neutralizing activity (RFFIT) [11]: 0.44 IU/mL and 2200 IU/mg; neutralizing activity (RFFIT), Titer [11]: 13; neutralizing activity (RFFIT) [12]: 1.85 IU/mL and 9260 IU/mg; neutralizing activity (RFFIT), Titer [12]: 50; neutralizing activity (RFFIT) [13]: 2.22 IU/mL and 11100 IU/mg; neutralizing activity (RFFIT), Titer [13]: 50; neutralizing activity (RFFIT) [14]: 1.05 IU/mL and 5260 IU/mg; neutralizing activity (RFFIT), Titer [14]: 50; neutralizing activity (RFFIT) [15]: 0.56 IU/mL and 2780 IU/mg; neutralizing activity (RFFIT), Titer [15]: 10; neutralizing activity (RFFIT) [16]: 2.24 IU/mL and 2240 IU/mg; neutralizing activity (RFFIT), Titer [16]: 280; neutralizing activity (RFFIT) [17]: 0.39 IU/mL and 1960 IU/mg; neutralizing activity (RFFIT), Titer [17]: 11; neutralizing activity (RFFIT) [18]: 2.5 IU/mL and 2500 IU/mg; neutralizing activity (RFFIT), Titer [18]: 250; neutralizing activity (RFFIT) [19]: 2.2 IU/mL and 2160 IU/mg; neutralizing activity (RFFIT), Titer [19]: 270
B2 | 1.47 IU/mL and 7350 IU/mg | 250 | 11.3 IU/mL and 11300 IU/mg | 1300 | 2.4 IU/mL and 11800 IU/mg | 1300 | 5.67 IU/mL and 28300 IU/mg | 170 | 0.31 IU/mL and 1560 IU/mg | 42 | 2.7 IU/mL and 2700 IU/mg | 270 | 1 IU/mL and 5000 IU/mg | 170 | 1.56 IU/mL and 7780 IU/mg | 210 | 5.4 IU/mL and 27000 IU/mg | 540 | 3.11 IU/mL and 15600 IU/mg | 280 | neutralizing activity (RFFIT) [11]: 7.2 IU/mL and 36000 IU/mg; neutralizing activity (RFFIT), Titer [11]: 180; neutralizing activity (RFFIT) [12]: 6.67 IU/mL and 33300 IU/mg; neutralizing activity (RFFIT), Titer [12]: 180; neutralizing activity (RFFIT) [13]: 5.56 IU/mL and 27800 IU/mg; neutralizing activity (RFFIT), Titer [13]: 125; neutralizing activity (RFFIT) [14]: 1.05 IU/mL and 5260 IU/mg; neutralizing activity (RFFIT), Titer [14]: 50; neutralizing activity (RFFIT) [15]: 2.78 IU/mL and 13900 IU/mg; neutralizing activity (RFFIT), Titer [15]: 50; neutralizing activity (RFFIT) [16]: 2.16 IU/mL and 2160 IU/mg; neutralizing activity (RFFIT), Titer [16]: 270; neutralizing activity (RFFIT) [17]: 2.5 IU/mL and 12500 IU/mg; neutralizing activity (RFFIT), Titer [17]: 70; neutralizing activity (RFFIT) [18]: 2.5 IU/mL and 2500 IU/mg; neutralizing activity (RFFIT), Titer [18]: 250; neutralizing activity (RFFIT) [19]: 2 IU/mL and 2000 IU/mg; neutralizing activity (RFFIT), Titer [19]: 250
